For one protein, Km and kcat results are on record in US5591613A, “Method for the preparation of D-arginine and L-ornithine” (Degussa Aktiengesellschaft, priority 1990, dated 1997).

Substrate in the data set: N=C(N)NCCC[C@H](N)C(=O)O
As to the kind of experiment: Arginase-catalysed hydrolysis of L-Arg to L-Orn, initial rates in batch, with and without inhibitors. As to conditions: other: nonlinear regression of initial rate data with L-Arg; 25.0 °C. The format is biochemical, calf.

Procedure: In further experiments, the materials used were: Calf liver arginase (activity 110 U/mg) which was obtained from Boehringer Mannheim (Mannheim, F.R.G.). Amino acids were from Rexim (Ham, France). MnSO4, MnO2, and ascorbic acid were from E. Merck (Darmstadt, F.R.G.).
Batch conditions used were: Starting pH value, except for the activity-pH curve, was either 11.5, the natural value for L-Arg in water, or 9.5, adjusted from pH 11.5 with conc. HCl. The temperature was 25° C. unless otherwise noted. Typical concentrations of L-Arg were 0.75M. Unless otherwise mentioned, [Mn2^+ ]=5-10^-4 M. Reaction progress was followed by HPLC (amino column, mobile phase: phosphate buffer (pH 6.4)/acetonitrile).
Kinetic data was obtained as follows: Initial rate data were analyzed by a non-linear regression method (Marquardt routine) with the program OPTI (U. Giesecke, KFA J ulich).
A linear slope of 1/[S] vs. [I] plot distinguishes a purely competitive inhibition mechanism from a partially competitive one. Simultaneously, the apparent and the intrinsic KM -value are proportional to [I] according to equation (5) from which the inhibition constant KI can be calculated
Since the runs have been conducted at [LArg]=50 mM=2·Km,intr,Vo =Vmax ·2·KM,intr /(KM,intr (3+[I]/KI))=Vmax ·2/(3+[I]/KI). At [I]=KI, Vo =Vmax 2/(3+1)=Vmax /2. So, KI can be calcuated with sufficient accuracy from a Vo vs. [I] plot such as FIG. 4.

B1: Calf liver arginase (Bos taurus) (protein)
chain: MSSKPQSIGVIGAPFSKGQPRGGVEEGPTVLRKAGLLEKLKELECDVKDYGDLSFADNLDDSPFQIVKNPRCVGKASEKLADVVAEVKKTGRISLVLGGDHSLAIGSISGHARVHPDLCVIWVDAHTDINTPLTTKTGNLHGQPVSFLLKELKEKMPEVPGFYWVAPCISAKDIVYIGLRDVDPGEHYILKTLGIKYFSMTEVDKLGIGKVMEETFSYLLGRKKRPIHLSFDVDGLDPSFTPATGTPVQGGLTYREGLYITEEIYKTGLLSGLDIMEVNPSLGKTPEEVTRTVNTTVAITMACFGVAREGNHKPIDYLSPPK
notes: purchased Boehringer Mannheim (Mannheim, F.R.G.)
As to B1, the Km stood at 25.5 mM and the kcat came to 1200 s⁻¹.
